This assay concerns the target properdin-bound C3b (human) (UniProt P27918). Put plainly: ELISA, factor B titrated on C3b-coated plates with properdin.

human factor B, sequence (P00751 other isoform, or with tags, fused parts or gaps limits assumed): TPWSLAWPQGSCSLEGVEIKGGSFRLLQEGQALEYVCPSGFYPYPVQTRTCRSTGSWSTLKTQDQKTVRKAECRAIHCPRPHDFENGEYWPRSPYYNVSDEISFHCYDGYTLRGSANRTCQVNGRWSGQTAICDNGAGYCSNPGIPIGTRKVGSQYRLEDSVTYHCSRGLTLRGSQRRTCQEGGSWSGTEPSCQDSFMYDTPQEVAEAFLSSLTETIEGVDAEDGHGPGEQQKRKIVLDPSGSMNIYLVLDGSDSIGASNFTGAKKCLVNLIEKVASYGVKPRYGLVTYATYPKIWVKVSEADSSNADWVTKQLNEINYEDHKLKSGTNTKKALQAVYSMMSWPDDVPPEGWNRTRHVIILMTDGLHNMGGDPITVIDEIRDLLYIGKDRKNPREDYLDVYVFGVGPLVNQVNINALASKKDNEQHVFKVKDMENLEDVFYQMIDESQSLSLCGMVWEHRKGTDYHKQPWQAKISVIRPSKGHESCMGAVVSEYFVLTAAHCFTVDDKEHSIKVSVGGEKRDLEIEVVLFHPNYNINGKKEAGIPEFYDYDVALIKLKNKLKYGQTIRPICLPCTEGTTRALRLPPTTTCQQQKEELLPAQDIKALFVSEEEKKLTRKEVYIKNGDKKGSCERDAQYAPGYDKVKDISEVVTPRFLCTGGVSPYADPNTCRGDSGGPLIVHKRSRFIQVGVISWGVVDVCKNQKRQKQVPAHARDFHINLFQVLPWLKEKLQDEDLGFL

On to “human factor B (from UniProt P00751 26-764) (enzyme)”, for which the Kd was 1.11 nM.

The record behind these values is patent US20160002348A1.
